According to the nanobody polyreactivity screen of Harvey et al. (2022):

Assay: yeast display, Sf9 membrane polyspecificity reagent, FACS + sequencing; frameworks hold sequencing errors
In short: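 After 36–48 hours of galactose induction, yeast (Saccharomyces cerevisiae BJ5465) displaying a synthetic nanobody library were stained at 4 °C for 1 hour with 10% biotinylated, detergent-solubilized Sf9 membrane reagent. Streptavidin microbeads enriched the stained cells before FACS sorting into low and high (top ~1%) gates on anti-HA and streptavidin fluorescence. Each clone's polyreactivity label reflects its gate of origin.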

Row | Sequence | polyreactivity (PSR sort gate)
1 | QVQLVESGGGLVQAGGSLRLSCAASGFIFYYNAMGWYRQAPGKERELVATITSGGSTNYADSVKGRFTISRDNAKNTVYLQMNSLKPEDTAVYYCAAGHSWVYGYDYWGQGTQVTVSS | low polyreactivity
2 | QVQLVESGGGLVQAGGSHRLSCAASGLTFVDNAMGWYRQAPGKDRELVAANSYNGGSTYYADSVKGRFTISRDNAKNTVYLQLHRLKPEDTAVYYCAADISVGRYGDMDDWGQGTQVTVSS | low polyreactivity
3 | KVQLVESGGGLVQAGGSLRFSCAPSGSIFSGNTMGWYRQAPGKEREMVAAITRSGDTTYYADSVKGRFTISRDYAKNTVYLQMNSLKPEDTAFYYCAAALPRYRSRAIRVEFWGQGSQVTVSS | high polyreactivity
4 | QVQLVESGGGLVQAGGSLRLSCAASGRTFVSYVMGLYRQAPGKERELVAAITWRGGSTYYADSVKGRFTISRDNAKNTVYLQMNSLKPEDTAVYYCNADYRYIWTYWGWTIYDYWGQGTQVTVSS | high polyreactivity
5 | QVQLVESAGGLVQAGGSLRLSCAASGSICTKYAMGWYRQAPGKERELVAAISASGGSTYYADSVKGRFTISRDNAKNTVYLQMNSLKPEDTAVYYCAARYWVREDYWGQGTQVTVSS | high polyreactivity
6 | QVQLEESGGGLVQAGGSLRLSCAASGFTFKRYAMGSYRQAPGKEREFVAAITRGGGSTYYADSVKGRFTISRDNAKNSVYLQMNSLKPEDTAVYYCAADPQYTIRDYWGQGTQVTVSS | high polyreactivity
7 | QVHLVESGGCLVQAGGSLRLSCAAYGSIFPKYALGWYRQAPGKERELVATISYRGGRTYYADSVKRRFTISRDNAKNTVYLQMNSLKPEDTAVYYWNAHSQAKLDYWGQGTQVTVSS | low polyreactivity
8 | QVQLVESGGGLVQAGGSLRLSWAASGSTFGFYAMGWYRQAPGKERELVASISSGGTTYHADSVKGRFTISRDNAKNTVYLQMNSLKPEDTAVYYSAAFYVATSKLGYWGQGSQVTVSS | low polyreactivity
9 | QVQLVESGGGLVKAGGSLRLSCAASGSTSQVNDMGWYRQAPGTERELVGAISSTGDRTYYADSVKGRFTISRDNAKNNVYLQMNSLKPDDTAVYYCANDPFPFPCGDYWGQGTQVTVSS | low polyreactivity
10 | QVQLVESGGGLVQAGGSLRLSCAASGIIFGRYAMGWYRQAPGKEREFVAAIRSRGGSTYYADSVKGRFTISRDNAKNTVYLQMNSLKPEDTAVYYCNAGHIYAGYRREYDYWGQGTQVTVSS | high polyreactivity
11 | QVQLVESGGGLVQAGGSLRLSCAASGGIFARNVMGWYRQAPGKERELVAAISGSGGSTYYADSVKGRFTISRDNAKNTVYLQMNSLKPEDTAVYYCAARTPGVSVYKDGYWGQGTQVTVSS | low polyreactivity
12 | QVQLVESGVGLVQAGGSLRLSCAASGSIFESYAMGWYRQAPGKVRELVADITYDGGITYYADSVKGRFTISRDNAKNTVYLQMNSLKPEDTAVYYCAKQYYFTFWGQGTQVTVSS | low polyreactivity
13 | QVQLVESGGGLVQAGGSLRLSCAASGFTFWYYAMGWYRQAPGKERELVAAITSGGTTYYADSVKGRFTISRDNAKNTVYLQMNSLKPEDTAVYYCAALLSIYRSQYDYWGQGTQVTVSS | high polyreactivity
14 | QVQLVESGGGLVQAGGSLRLSCAASGSTLYRYAMGWYRQAAGKERELVATITRSGGSTYYADSVKGRFTISRDNAKNTVYLQMNSLKPEDTAVYSCAAYRKVGGFSRGDYWGQGTQVTVSS | high polyreactivity
15 | QVQLVESGGGLVQAGGSLRLSCAASGFIFSPYAMGWYRQAPGKERELVAAISSGTRTNYADSVKGRFTISRDNAKNTVYLQMNSLKPEDTAVYYCAAKYRGTYDSRVYYWFYYWGQGTQVTVSS | high polyreactivity
16 | QVQLVESGGGLVQAGGSLRLSCAASGRIFRRYAMGWYRQAPGKERELVAAISSGGSTYYADSVKGRFTISRDNAKKTVYLQMNSLKPEDTAVYYCNAKVGAYLNYGYWGQGTQVTVSS | low polyreactivity
17 | QGQLVESGGGLVQAGGSLRLSCAASGFTFQYYAMGWYRQAPGKDRELVAALSSSGGRTFYADSVKGRFTISRDNAKNTVYLQMNSLKAEDTAVYYCAAVWYGFLYYYWGQGTQVTVSS | high polyreactivity
18 | QVQLEESGGGLVQAGGSLRLSCAASGRIFYEYAMGWYRQAPGKERELVADISSGDDTYYADSVKGRFTISRDNAKNTVYLQMNSLKPEDTAVYYCAADDGGSGFIYDYWGQGTQVTVSS | low polyreactivity
19 | QVQLVESGGGLVQAGGSLRLSCAASGFTFYYYAMGWYRQAPGKERELVAAISWSSGRTYYADSVKGRFTISRDNAKNTVYLQMNSLKPEDTAVYYCAADGYAGSWWYDYWGQCTQVTVSS | high polyreactivity
20 | QVQLVESGGGLVQAGGSLRLSCAASGSTFTGNVMGWYRQAPGKERELVAAIDSGATTNYADSVKGRFTISRDNAKNTVYLQINSLKPEDTAVYYCATDGLDFWFIYDYWGQGTQVTVSS | low polyreactivity
21 | QVQLEESGGGLVQAGGSLRLSCAASGSTYWLYPMGGYRQATGKERELVATISERGGSTYYADSVKGRFTISRDNAKNTVYLQMNSLKPEDTAVYYCAAHVYGSWPDYDYWGQGTQVSVSS | low polyreactivity
22 | QVQLVESGGGLVQAGGSLRLSCAASGFTFWAYTMGWYRQAPGKERELVAAITRSGGRTYYADSVKGRFTISRDNAKNTVYLQLNSLKPEDTAVYYCAAKIWSKDEKHDYWGQGTQVTGSS | high polyreactivity

Row | Sequence | polyreactivity (PSR sort gate)
23 | QVQLVESGGGLVQAGGSHRLSCAASGSTFRVYAMGWYRQAPGKERELVATISWGGGRTYYADSVKGRFTISRDNAKNTVYLQMNSLKPEDTAVYYCAADQRWTTDQPTAGDYWGQGTQVTVSS | low polyreactivity
24 | QVQLVESGGGLVQAGGSLRLSCAHSASNFGIYAMGWYRQAPGKERELVAPITWYGTSTYYADSVKGRFTISRDNSKNSVYLQMNSLKPEDTAVYYCATAYIQVSATFYEYEYWGQGTQVTVSS | low polyreactivity
25 | QVQLVESGGGLVQAGGSLRLSCAASGFILRYNAMGWYRQAPGKERELVAAISYTGDRTYYADSVKGRFTISRDNAKNTVYLQMNSLKPEDTAVYYCNAVTYGSYYYWGQGTQVTVSS | high polyreactivity
26 | QVQLVESGGGLVQAGGSLRLSCAASGYIFYFNDMGWYRQAPGKERELVADITYSGDSTYYADSVKGRFTISRDNAKNTVYLQMNSLKPEDTAVYYCAARRGWWYRGDDYWGQGTQVNVSS | low polyreactivity
27 | QVQLLESRGGLVQAGGSLRLSCPASGITFSRCAMGWYRQAPGKERELVAAITSGGRTNYADSVKGRFTISRDNATNTVYLQMISLKPEDTAVYYCAASYYYLSWRMDYWGQGTQVTVSS | high polyreactivity
28 | QVQLVESGGGLVQAGGSLRLSCAASGSIFRYYAKGWSRQAPGKERELVAAISRSGGSTYYADSVKGRFTISRDNAKNTVYLQMKSLKPEDTAVYYCAAEYRVRAQGYVYWGQGTQVTVSS | high polyreactivity
29 | QVQLVESGGGLVQAGGSLRLSCAASGFTFKYYAMGWYRQAPGKERELVASISYSGGRTSYADSVKGRFTISRDNAKNTVYLQMNSLKPEDTAVYYCNADVRRIDYKSRQYDYWGQGTQVTVSS | high polyreactivity
30 | QVQLVESGGGLVQAGGSLRLSCAASGSTFARNAMGWYRQAPGKERELVAAITTRGSSTYYADSVKGRFTISRDNAKNTVYLQMNSLKPEDTAVYYCAARTQAPLGKYGYWGQGTQVTVSS | high polyreactivity
31 | QVQLVESGGGLVQAGGSLRLSCAASGRTFGSYVMGWYRQAPGKERELVATISRRGGTTYYADSVKGRYTISRDNAKNTVYLQMNSLKPEDTAVYYCAAKYFGTRYDYWGQGTQVTVSS | high polyreactivity
32 | QEQLVETVVGLVQARGSLRLRSAASGITFRKYAMRWYRQAPGKERDFVAAITRGGRTYYADSVKGRFTISRENAKNTVYLQMNSLKPEDTAVYYCAACTVVYAGSTYLQPFDYWGQGTQVTVSS | high polyreactivity
33 | QVQLVESGGGLVQAGGSLRLSCPASGFTFKSYAMGWYRQAPGKERELVAAISRGGSTYYADSVKGRFTISRDNAKNTVYLQMNSLKPEDTAVYYCNKTRYSRSYYEYDYWGQGTQVTVSS | low polyreactivity
34 | QVHLVESGGGLVQAGGSLRLSCASSGRIFEAYAMGWYRQAPGKERELVAAISGSGGSTYYADSVKGRFTISRDNAKNTVYLQMNSLKPEDTAVYYCAARYFVGKGLGYWGQGTQVTVSS | high polyreactivity
35 | QVQHVESGGGLVQAGGSLRLSCAASGRTSIPYAMGRYRQAPGKEWQLVAAISYSVGRTYYADSVKGRFTISRDNAKNTVYLQMNSLKPEDTAVYYCAAEYNGVVRDYDYWGQGTQVTVSS | low polyreactivity
36 | QVQLVESGGGLVQAGGSLRLSCAASGFIFYYNARGWYRQAPGKERELVAGISWDGSTYYADSVKGRFTISRDNAKNTVYLQMNSLKPEDTAVYYCAAALLDDYFDLFIFGYWGQGTQVTVSS | low polyreactivity
37 | QVQLVESGGGLVQAGGSLRLSCAASGFIFYGYTMGWYRQAPGKERELVARISRRGGSTYYADSVKGRFTISRDNAKNTVYLQMNSLKPEDTAVYYCAAELRRLFYAYGYWGQGTQVTVSS | low polyreactivity
38 | QVQLVDSGGGLVQAGGSLRLSCAPYVLIFWAYAMGWYRQAPGKERELVAAISWSGARTYYADSVMGRFTISRDHAKHTVYLQMNSLKPEDTAVYYCAVGVQSSKRHDYWGQGTQVTVSS | high polyreactivity
39 | QVQLVESGGGLVQAGGSLRLSCAASGRIIRWYAMGWYRQAPGKERELVAAISGSGGSTYYADSVKGRFTISRDNAKNTVYLQMNSLKPEDTAVYYCAAAYYRDSDRRYNYWGQGTQVTVSS | high polyreactivity
40 | QFQLVESCGGLVQAGGSLRLSCAASGSIFYYYVMGWYRQAPGKEREFVAAISWRGDSTYYADSVKGRFTISRDNAKNTVYLQMNSLKPEDTAVYYCNADYPWSVVGYDYLGQGTQVTVSS | low polyreactivity
41 | QVQLVESGGGLVQAGGSLRLSSAASGSTFPNYAMGWYRQAPGKERELVAAITSSTGRTYYADSVKGRFTISRDTAKNSVYVPLHSLKPADTAVYYCNAEVYSDPYNDHDYWGQGTQVTVSS | low polyreactivity
42 | QVQLVESGGGLVQAGGSLRLSCAASGSTFYQYAMGWYRQAPGKERELVAAISKSGGSTYYADSVKGRFTISRDNAKNTVYLQMNSLKPEDTAVYYCATRWIKGRNMDYWGQGTQVTVSS | high polyreactivity
43 | QVQLVESGGGLVQAGGSLRLSCAASGNIFYVYVMGWYRQAPGKERELVASITSGASTYYADSVKGRFTISRDNAKNTVYLQMNSLKPEDTAVYYCAAEALGGAGDYSTLYIYDYWGQGTQVTVSS | low polyreactivity
